The chains are these.
B1: TPR t1 (parent)
chain: GACCAAUCUGCCCUCAGAGCUCGAGAACAUCUUCGGAUGCAGAGGAGGCAGGCUUCGGUGGCGCGAUAGCGCCAACGUCCUCAACCUCCAAUGCAUCCCACCACAUGAUGAUGCCUGAAGAGCCUUGGUUUUUUG

Variants of B1 are the subject of the series. The series is described as follows: polymerase ribozyme fitness, log enrichment relative to wild type (log ratio); higher = more active; in vitro selection for triplet polymerase activity. In outline:
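The heterodimeric triplet polymerase ribozyme's subunits were each mutagenized into PCR-built libraries and transcribed. Every library was selected once, in triplicate, by annealing with a biotinylated primer, the partner subunit and triplets, incubating frozen at −7 °C, gel-excising extended constructs, capturing on streptavidin beads and running RT-PCR. Input and output libraries were Illumina-sequenced, with genotypes kept only at ≥10 input reads and ≥1 read per output. Fitness, from inverse-variance-weighted replicate averages, is the base-2 logarithm of genotype enrichment over wild-type enrichment.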
With G44U A74U C88A U133G, the “polymerase ribozyme fitness (log ratio)” value is -2.41.

Consider G45U C123U, for which the “polymerase ribozyme fitness (log ratio)” value was -0.952.

For A43U C56G C114U, the “polymerase ribozyme fitness (log ratio)” value is -2.92.

For G45C C62U, the “polymerase ribozyme fitness (log ratio)” value was -1.63.

With A43U C49A, the “polymerase ribozyme fitness (log ratio)” value was -1.86.

As to G45U C53A C72U C89G, the “polymerase ribozyme fitness (log ratio)” value is -1.72.

Turning to G45A G60C, the “polymerase ribozyme fitness (log ratio)” value is -0.0735.

Turning to G45U G60U, the “polymerase ribozyme fitness (log ratio)” value is -0.287.

Regarding G44U U54G C76A, the “polymerase ribozyme fitness (log ratio)” value was -1.81.

As for A43U U131A, the “polymerase ribozyme fitness (log ratio)” value was -1.44.

With G45C G93U A121U, the “polymerase ribozyme fitness (log ratio)” value was -1.16.

Regarding A43U C53U G77U C85G U106A, the “polymerase ribozyme fitness (log ratio)” value is -5.13.

As to G44U A95U G117C, the “polymerase ribozyme fitness (log ratio)” value was -4.64.

On to G44U G60C A91U A121G, for which the “polymerase ribozyme fitness (log ratio)” value is -0.902.

As for G44C G69U A121C, the “polymerase ribozyme fitness (log ratio)” value was 1.9.

As for A43U G60C C82A G113A G128C, the “polymerase ribozyme fitness (log ratio)” value was -4.68.

Take G44A C124A: the “polymerase ribozyme fitness (log ratio)” value is 0.456.

In the case of G44A G63A, the “polymerase ribozyme fitness (log ratio)” value is -2.44.

In the case of G44U C53A C70A, the “polymerase ribozyme fitness (log ratio)” value was -2.06.

G44U C56G U92A C115A: the “polymerase ribozyme fitness (log ratio)” value is -4.27.

Regarding G44C C53U C76U, the “polymerase ribozyme fitness (log ratio)” value is -1.48.

G44U G128U: the “polymerase ribozyme fitness (log ratio)” value is -3.49.

Regarding G44U C53G G61C U81G C102U U132A, the “polymerase ribozyme fitness (log ratio)” value was -3.53.

For G44A C89U C104A U106A, the “polymerase ribozyme fitness (log ratio)” value is -2.1.

Turning to G45A G107A A121C, the “polymerase ribozyme fitness (log ratio)” value is -6.43.

In the case of A43U G57C C98U U126A, the “polymerase ribozyme fitness (log ratio)” value was -4.59.

As for G45C U54C C73A U81A G93C A111C, the “polymerase ribozyme fitness (log ratio)” value is -4.76.

For G45A G120C, the “polymerase ribozyme fitness (log ratio)” value was 0.183.

G44A G52A C56U: the “polymerase ribozyme fitness (log ratio)” value is -1.35.

G45A C49A C72G G128A: the “polymerase ribozyme fitness (log ratio)” value is -3.14.

G45A A84C: the “polymerase ribozyme fitness (log ratio)” value was -0.717.

For G45A U55A, the “polymerase ribozyme fitness (log ratio)” value was determined as 0.00657.

Regarding G44U G71A U130A, the “polymerase ribozyme fitness (log ratio)” value was -2.12.

Consider G44U G60U C94U, for which the “polymerase ribozyme fitness (log ratio)” value is -0.792.

Take A43G G61C: the “polymerase ribozyme fitness (log ratio)” value is -4.3.

On to G44U C53A G63A G113A, for which the “polymerase ribozyme fitness (log ratio)” value is -2.93.

As to G44C A46G, the “polymerase ribozyme fitness (log ratio)” value is -0.686.

Regarding G45A C99A, the “polymerase ribozyme fitness (log ratio)” value is -6.7.

With G45A C56G U87G C114G, the “polymerase ribozyme fitness (log ratio)” value is -5.48.

On to G44U U96A U116G, for which the “polymerase ribozyme fitness (log ratio)” value was -3.66.

G45A C73U C88A U112C G122U: the “polymerase ribozyme fitness (log ratio)” value was determined as 0.105.

As for G44A G52U G122A C123U C124G U130G, the “polymerase ribozyme fitness (log ratio)” value was -1.46.

Regarding G45U C56U G122U U129C, the “polymerase ribozyme fitness (log ratio)” value was -1.59.

As to G45A G61A A74U, the “polymerase ribozyme fitness (log ratio)” value is -1.29.

On to G44A C53A C56A, for which the “polymerase ribozyme fitness (log ratio)” value was -1.42.

Turning to A43U C102A C114A, the “polymerase ribozyme fitness (log ratio)” value was -5.12.

With G45U C56A C73G, the “polymerase ribozyme fitness (log ratio)” value was -2.79.

Take A43G G52C C53A G61A U96C: the “polymerase ribozyme fitness (log ratio)” value is -2.66.

G44C G48U C53A G61C U112G: the “polymerase ribozyme fitness (log ratio)” value is -6.03.

Take A43G G44U C49G U96A: the “polymerase ribozyme fitness (log ratio)” value is -2.32.

In the case of G45C G48U G52U C76U, the “polymerase ribozyme fitness (log ratio)” value was -4.18.

Take G45C C115A U130C: the “polymerase ribozyme fitness (log ratio)” value is -2.49.

On to G45U C70A C123U, for which the “polymerase ribozyme fitness (log ratio)” value was -1.23.

G44A C98A A111U: the “polymerase ribozyme fitness (log ratio)” value was -5.83.

For A43U G47U C72U U92A C104G C114G, the “polymerase ribozyme fitness (log ratio)” value was -7.84.

For G44C G61A A84C, the “polymerase ribozyme fitness (log ratio)” value was -0.524.

As to A43U C56G C64U, the “polymerase ribozyme fitness (log ratio)” value was -2.1.

On to A43U G69U A91C, for which the “polymerase ribozyme fitness (log ratio)” value was 0.416.

As for A43U G113A, the “polymerase ribozyme fitness (log ratio)” value is -1.27.

Turning to A43U C56A C85G, the “polymerase ribozyme fitness (log ratio)” value was -3.95.

G45C G47A: the “polymerase ribozyme fitness (log ratio)” value was -3.52.

Regarding G45C C49A C76U C102A, the “polymerase ribozyme fitness (log ratio)” value was -3.88.

Regarding G44A C64U, the “polymerase ribozyme fitness (log ratio)” value is -1.11.

With G45U A74G U132A, the “polymerase ribozyme fitness (log ratio)” value was -2.04.

For the variant G44A G71A A91G U116A G122A C124U, the “polymerase ribozyme fitness (log ratio)” value is -4.96.

As to G45U A46C G127C, the “polymerase ribozyme fitness (log ratio)” value was -2.82.

A43U G63C U78C: the “polymerase ribozyme fitness (log ratio)” value was -3.61.

With G44C G122A, the “polymerase ribozyme fitness (log ratio)” value was -1.4.

With A43U C56A, the “polymerase ribozyme fitness (log ratio)” value was -1.69.

A43G U133A: the “polymerase ribozyme fitness (log ratio)” value was -1.57.

Consider A43U A50G C72A G93C A95C C115U, for which the “polymerase ribozyme fitness (log ratio)” value was -4.47.

In the case of G44A A46U A91G U92A, the “polymerase ribozyme fitness (log ratio)” value was -5.83.

As for G44U G71U C104U U106A, the “polymerase ribozyme fitness (log ratio)” value is -1.53.

Take G44A G57A A91G C101G G113U: the “polymerase ribozyme fitness (log ratio)” value is -4.86.

With G44A G69C, the “polymerase ribozyme fitness (log ratio)” value is -2.21.

Regarding G44A C49U U106G, the “polymerase ribozyme fitness (log ratio)” value is -5.12.

For G44C U92G U112C, the “polymerase ribozyme fitness (log ratio)” value was -0.938.

Take G45U C64U: the “polymerase ribozyme fitness (log ratio)” value was -0.713.

As to G45C G69A G117U, the “polymerase ribozyme fitness (log ratio)” value was -6.59.

Regarding G44U G127C, the “polymerase ribozyme fitness (log ratio)” value is -2.57.

As for G45C U130C, the “polymerase ribozyme fitness (log ratio)” value was -2.26.

As for G45C A84G C97A, the “polymerase ribozyme fitness (log ratio)” value is -6.72.

G44U G77C: the “polymerase ribozyme fitness (log ratio)” value is -2.05.

For A43U C94A, the “polymerase ribozyme fitness (log ratio)” value is -1.82.

The record behind these values is the RNAGym collection of RNA variant scans (doi:10.1073/pnas.2313332121).
